Abundance fitness data for 38 substances are collected here from the Human Domainome abundance scans (Beltran et al. 2025).

± gives the uncertainty stated by the source.

This series can be described thus: abundance fitness (aPCA) (normalised: wild type 0, dead -1); higher = more abundant; growth selection in yeast, the domain comes from the species named. Particulars: Homo sapiens.
“Transcriptional activator Myb P174T, P10242” returned an abundance fitness of -0.184 ± 0.074. “Transcriptional activator Myb P174V, P10242” returned an abundance fitness of -0.127 ± 0.073. The same measure for “Transcriptional activator Myb P174Y, P10242”: -0.643 ± 0.12; for “Transcriptional activator Myb Q157L, P10242”: -0.081 ± 0.22; for “Transcriptional activator Myb Q195A, P10242”: -0.045 ± 0.079.

“Transcriptional activator Myb Q195C, P10242”: the abundance fitness was -0.043 ± 0.12. Consider “Transcriptional activator Myb Q195D, P10242”, for which the abundance fitness was -0.19 ± 0.13. For “Transcriptional activator Myb Q195E, P10242” the value was 0.006 ± 0.15; for “Transcriptional activator Myb Q195F, P10242”, -0.244 ± 0.15; for “Transcriptional activator Myb Q195G, P10242”, -0.074 ± 0.074. In the case of “Transcriptional activator Myb Q195H, P10242”, the abundance fitness was -0.269 ± 0.16. For “Transcriptional activator Myb Q195I, P10242” the value was -0.19 ± 0.15; for “Transcriptional activator Myb Q195K, P10242”, -0.388 ± 0.41; for “Transcriptional activator Myb Q195L, P10242”, -0.057 ± 0.091. On to “Transcriptional activator Myb Q195M, P10242”, for which the abundance fitness is -0.199 ± 0.16. For the substance “Transcriptional activator Myb Q195N, P10242”, the abundance fitness stood at 0.107 ± 0.29. The substance “Transcriptional activator Myb Q195P, P10242” came in with an abundance fitness of -0.214 ± 0.15. Regarding “Transcriptional activator Myb Q195R, P10242”, the abundance fitness was found to be 0.091 ± 0.07. “Transcriptional activator Myb Q195S, P10242”: the abundance fitness was -0.054 ± 0.1. On to “Transcriptional activator Myb Q195V, P10242”, for which the abundance fitness amounted to 0.043 ± 0.081.

In the case of “Transcriptional activator Myb Q195W, P10242”, the abundance fitness is -0.282 ± 0.14.

“Transcriptional activator Myb Q195Y, P10242” displayed an abundance fitness of -0.26 ± 0.22. For “Transcriptional activator Myb Q200A, P10242”, the abundance fitness was determined as 0.011 ± 0.068. As to “Transcriptional activator Myb Q200C, P10242”, the abundance fitness is -0.18 ± 0.11. “Transcriptional activator Myb Q200D, P10242” returned an abundance fitness of -0.139 ± 0.11. The same measure for “Transcriptional activator Myb Q200E, P10242”: -0.008 ± 0.082; for “Transcriptional activator Myb Q200F, P10242”: -0.302 ± 0.11; for “Transcriptional activator Myb Q200G, P10242”: 0.014 ± 0.049. For the substance “Transcriptional activator Myb Q200H, P10242”, the abundance fitness stood at 0.003 ± 0.13.

With “Transcriptional activator Myb Q200I, P10242”, the abundance fitness is -0.161 ± 0.11. Regarding “Transcriptional activator Myb Q200K, P10242”, the abundance fitness is 0.002 ± 0.088. The substance “Transcriptional activator Myb Q200L, P10242” came in with an abundance fitness of -0.078 ± 0.067. In turn, “Transcriptional activator Myb Q200M, P10242” came in with an abundance fitness of -0.205 ± 0.088. Regarding “Transcriptional activator Myb Q200N, P10242”, the abundance fitness came to 0.004 ± 0.11. On to “Transcriptional activator Myb Q200P, P10242”, for which the abundance fitness worked out at 0.005 ± 0.1. As for “Transcriptional activator Myb Q200R, P10242”, the abundance fitness was 0.007 ± 0.048. For the substance “Transcriptional activator Myb Q200S, P10242”, the abundance fitness is -0.073 ± 0.06.

As to “Transcriptional activator Myb Q200T, P10242”, the abundance fitness was -0.135 ± 0.072.
